The values that follow come from patent publication US20140271457A1 (AbbVie / Abbott, published 2014).

Substitutions are numbered along the chain they refer to. Some results are limits rather than exact numbers.

Assay [1] has as its target Recombinant Human IL-13 (human, UniProt P35225 35-146, limits assumed). The experiment in a line: Biacore SPR. In a few lines:
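Kinetic constants come from global 1:1 model fitting (Rmax local) at 0.8–100 nM antigen. Flow was 50 μl/min with 5 min association and 10 min dissociation. Capture used goat anti-mouse IgG Fcγ on a CM5 chip in HBS-EP+ at 25 °C.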
Target sequence in this assay (P35225 35-146 limits assumed): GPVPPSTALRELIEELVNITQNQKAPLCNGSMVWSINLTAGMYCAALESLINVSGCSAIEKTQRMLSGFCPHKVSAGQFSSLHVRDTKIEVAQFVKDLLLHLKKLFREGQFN

Assay [2] shares this target. The assay can be described thus: cell-based or functional assay.
Target sequence in this assay (P35225 35-146 limits assumed): as above

B1: DVD3144 (bispecific antibody, IgG1)
VH: EVQLVESGGGLVQPGGSLRLSCAASGFTFSNYGVTWVRQAPGKGLEWVSMIWADGSTHYASSVKGRFTISRDNSKNTLYLQMNSLRAEDTAVYYCAREWQHGPVAYWGQGTLVTVSSASTKGPEVQLVQSGAEVKKPGASVKVSCKASGYTFTSYWMHWVRQAPGQGLEWIGNINPKGGSNIYNEKFQGRVTMTRDTSISTAYMELSRLRSDDTAVYYCARLDYFGDSFDLWGQGTTVTVSS
VL: DIQMTQSPSSLSASVGDRVTITCRASQLVSSAVAWYQQKPGKAPKLLIYWASARHTGVPSRFSGSGSGTDFTLTISSLQPEDFATYYCQQHYKTPFTFGQGTKLEIKRTVAAPDIQMTQSPSSLSASVGDRVTITCRASQGIRNYLNWYQQKPGKAPKLLIYYASNLEVGVPSRFSGSGSGTDYTLTISSLQPEDFATYYCQQDNRFPYTFGGGTKVEIKR
notes: DVD-Ig; wt hIgG1 + kappa constants
As for B1, in the assay with Recombinant Human IL-13 [1], the Kd (commonly the concentration at which binding is half-saturated) is 0.12 nM; the koff (usually the rate constant with which the complex falls apart) was 7.3e-06 s⁻¹; the kon (as a rule, the rate constant with which the complex forms) turned out to be 62000 M⁻¹ s⁻¹.

B2: DVD3146 (bispecific antibody, IgG1)
VH: B1 VH
VL: DIQMTQSPSSLSASVGDRVTITCRASQLVSSAVAWYQQKPGKAPKLLIYWASARHTGVPSRFSGSGSGTDFTLTISSLQPEDFATYYCQQHYKTPFTFGQGTKLEIKRTVAAPSVFIFPPDIQMTQSPSSLSASVGDRVTITCRASQGIRNYLNWYQQKPGKAPKLLIYYASNLEVGVPSRFSGSGSGTDYTLTISSLQPEDFATYYCQQDNRFPYTFGGGTKVEIKR
notes: as for B1
B2: in the assay with Recombinant Human IL-13 [1], the Kd amounted to 0.24 nM, the koff came to 4.6e-05 s⁻¹ and the kon was 190000 M⁻¹ s⁻¹.

B3: DVD3147 (bispecific antibody, IgG1)
VH: EVQLVESGGGLVQPGGSLRLSCAASGFTFSNYGVTWVRQAPGKGLEWVSMIWADGSTHYASSVKGRFTISRDNSKNTLYLQMNSLRAEDTAVYYCAREWQHGPVAYWGQGTLVTVSSASTKGPSVFPLAPEVQLVQSGAEVKKPGASVKVSCKASGYTFTSYWMHWVRQAPGQGLEWIGNINPKGGSNIYNEKFQGRVTMTRDTSISTAYMELSRLRSDDTAVYYCARLDYFGDSFDLWGQGTTVTVSS
VL: B1 VL
notes: as for B1
In the case of B3, in the assay with Recombinant Human IL-13 [1], the Kd was below 0.0077 nM, the koff was below 1e-06 s⁻¹ and the kon was 130000 M⁻¹ s⁻¹.

B4: DVD3154 (bispecific antibody, IgG1)
VH: B1 VH with T35E, M50G, S61D, S62T, G65S
VL: B1 VL with R24K, A53T, R54L, K93R
notes: as for B1
Take B4: in the assay with Recombinant Human IL-13 [1], the Kd was 0.58 nM, the koff was found to be 3e-05 s⁻¹ and the kon worked out at 53000 M⁻¹ s⁻¹.

B5: DVD3156 (bispecific antibody, IgG1)
VH: B1 VH with T35E, M50G, S61D, S62T, G65S
VL: B2 VL with R24K, A53T, R54L, K93R
notes: as for B1
Regarding B5, in the assay with Recombinant Human IL-13 [1], the Kd is 0.34 nM, the koff was determined as 5.4e-05 s⁻¹ and the kon was determined as 160000 M⁻¹ s⁻¹.

B6: DVD3157 (bispecific antibody, IgG1)
VH: B3 VH with T35E, M50G, S61D, S62T, G65S
VL: B1 VL with R24K, A53T, R54L, K93R
notes: as for B1
With B6, in the assay with Recombinant Human IL-13 [1], the Kd worked out at 0.0095 nM, the koff worked out at 1.1e-06 s⁻¹ and the kon came to 110000 M⁻¹ s⁻¹.

B7: AB397 (antibody, V domains shown)
VH: EVTLRESGPGLVKPTQTLTLTCTLYGFSLSTSDMGVDWIRQPPGKGLEWLAHIWWDDVKRYNPALKSRLTISKDTSKNQVVLKLTSVDPVDTATYYCARTVSSGYIYYAMDYWGQGTLVTVSS
VL: DIQMTQSPSSLSASVGDRVTISCRASQDIRNYLNWYQQKPGKAPKLLIFYTSKLHSGVPSRFSGSGSGTDYTLTISSLQPEDIATYYCQQGLTPPLTFGGGTKVEIKR
For the molecule B7, the “IL-13 Neutralization Assay IC50” value with Recombinant Human IL-13 [2] was determined as 0.066 nM.

B8: DVD3143 (bispecific antibody, IgG1)
VH: EVQLVESGGGLVQPGGSLRLSCAASGFTFSNYGVTWVRQAPGKGLEWVSMIWADGSTHYASSVKGRFTISRDNSKNTLYLQMNSLRAEDTAVYYCAREWQHGPVAYWGQGTLVTVSSGGGGSGGGGSEVQLVQSGAEVKKPGASVKVSCKASGYTFTSYWMHWVRQAPGQGLEWIGNINPKGGSNIYNEKFQGRVTMTRDTSISTAYMELSRLRSDDTAVYYCARLDYFGDSFDLWGQGTTVTVSS
VL: DIQMTQSPSSLSASVGDRVTITCRASQLVSSAVAWYQQKPGKAPKLLIYWASARHTGVPSRFSGSGSGTDFTLTISSLQPEDFATYYCQQHYKTPFTFGQGTKLEIKRGGSGGGGSGDIQMTQSPSSLSASVGDRVTITCRASQGIRNYLNWYQQKPGKAPKLLIYYASNLEVGVPSRFSGSGSGTDYTLTISSLQPEDFATYYCQQDNRFPYTFGGGTKVEIKR
notes: as for B1
For the molecule B8, in the assay with Recombinant Human IL-13 [1], the Kd is 0.37 nM, the koff came to 6.2e-05 s⁻¹ and the kon was found to be 170000 M⁻¹ s⁻¹.

B9: DVD3153 (bispecific antibody, IgG1)
VH: B8 VH with T35E, M50G, S61D, S62T, G65S
VL: B8 VL with R24K, A53T, R54L, K93R
notes: as for B1
Turning to B9, in the assay with Recombinant Human IL-13 [1], the Kd came out at 0.45 nM, the koff came out at 8.2e-05 s⁻¹ and the kon was determined as 180000 M⁻¹ s⁻¹.

B10: DVD3159 (bispecific antibody, IgG1)
VH: EVQLVQSGAEVKKPGASVKVSCKASGYTFTSYWMHWVRQAPGQGLEWIGNINPKGGSNIYNEKFQGRVTMTRDTSISTAYMELSRLRSDDTAVYYCARLDYFGDSFDLWGQGTTVTVSSASTKGPEVQLVESGGGLVQPGGSLRLSCAASGFTFSNYGVEWVRQAPGKGLEWVSGIWADGSTHYADTVKSRFTISRDNSKNTLYLQMNSLRAEDTAVYYCAREWQHGPVAYWGQGTLVTVSS
VL: DIQMTQSPSSLSASVGDRVTITCRASQGIRNYLNWYQQKPGKAPKLLIYYASNLEVGVPSRFSGSGSGTDYTLTISSLQPEDFATYYCQQDNRFPYTFGGGTKVEIKRTVAAPDIQMTQSPSSLSASVGDRVTITCKASQLVSSAVAWYQQKPGKAPKLLIYWASTLHTGVPSRFSGSGSGTDFTLTISSLQPEDFATYYCQQHYRTPFTFGQGTKLEIKR
notes: as for B1
Take B10: in the assay with Recombinant Human IL-13 [1], the Kd came to 0.039 nM, the koff came out at 5.4e-05 s⁻¹ and the kon worked out at 1.4e+06 M⁻¹ s⁻¹.

B11: DVD2692 (bispecific antibody, human IgG1, kappa)
heavy: not shown
light: DIQMTQSPSSLSASVGDRVTISCRASQDIRNYLNWYQQKPGKAPKLLIFYTSKLHSGVPSRFSGSGSGTDYTLTISSLQPEDIATYYCQQGLTPPLTFGGGTKVEIKRTVAAPDIQMTQSPSSLSASVGDRVTITCRASQLVSSAVAWYQQKPGKAPKLLIYWASARHTGVPSRFSGSGSGTDFTLTISSLQPEDFATYYCQQHYKTPFTFGQGTKLEIKRTVAAPSVFIFPPSDEQLKSGTASVVCLLNNFYPREAKVQWKVDNALQSGNSQESVTEQDSKDSTYSLSSTLTLSKADYEKHKVYACEVTHQGLSSPVTKSFNRGEC
As to B11, in the assay with Recombinant Human IL-13 [2], the “IL-13 Neutralization Assay IC50” value worked out at 0.131 nM.

B12: DVD3114 (bispecific antibody, IgG1)
VH: EVQLVQSGAEVKKPGASVKVSCKASGYTFNNYGIIWVRQAPGQGLEWMGWINTYTGKPTYAQKFQGRVTMTTDTSTSTAYMELSSLRSEDTAVYYCARKLFNTVAVTDNAMDYWGQGTTVTVSSASTKGPEVQLVQSGAEVKKPGASVKVSCKASGYTFTTYGVSWVRQAPGQGLEWMGEIYPGNYNTYYNEKFRGRVTMTTDTSTSTAYMELRSLRSDDTAVYYCARWRTSYFSDYGYFDYWGQGTTVTVSS
VL: DIQMTQSPSSLSASVGDRVTITCRASQDIENYLNWYQQKPGKAPKLLIYYTSRLQSGVPSRFSGSGSGTDFTLTISSLQPEDFATYFCQQGNTQPPTFGQGTKLEIKRTVAAPDVVMTQSPLSLPVTLGQPASISCRSSQSLVHSHGNTYLHWYQQRPGQSPRLLIYTVSNRFSGVPDRFSGSGSGTDFTLKISRVEAEDVGVYYCSQSTHVPYTFGGGTKVEIKR
notes: as for B1
For the molecule B12, in the assay with Recombinant Human IL-13 [1], the Kd came out at 0.0069 nM, the koff amounted to 1.2e-06 s⁻¹ and the kon was 170000 M⁻¹ s⁻¹.

B13: DVD2738 (bispecific antibody, human IgG1, kappa)
heavy: not shown
light: DIQMTQSPSSLSASVGDRVTISCRASQDIRNYLNWYQQKPGKAPKLLIFYTSKLHSGVPSRFSGSGSGTDYTLTISSLQPEDIATYYCQQGLTPPLTFGGGTKVEIKRGGSGGGGSGDIQMTQSPSSLSASVGDRVTITCKASQLVSSAVAWYQQKPGKAPKLLIYWASTLHTGVPSRFSGSGSGTDFTLTISSLQPEDFATYYCQQHYRTPFTFGQGTKLEIKRTVAAPSVFIFPPSDEQLKSGTASVVCLLNNFYPREAKVQWKVDNALQSGNSQESVTEQDSKDSTYSLSSTLTLSKADYEKHKVYACEVTHQGLSSPVTKSFNRGEC
Regarding B13, in the assay with Recombinant Human IL-13 [2], the “IL-13 Neutralization Assay IC50” value is 0.149 nM.

B14: DVD2691 (bispecific antibody, human IgG1, kappa)
heavy: not shown
light: DIQMTQSPSSLSASVGDRVTISCRASQDIRNYLNWYQQKPGKAPKLLIFYTSKLHSGVPSRFSGSGSGTDYTLTISSLQPEDIATYYCQQGLTPPLTFGGGTKVEIKRTVAAPSVFIFPPDIQMTQSPSSLSASVGDRVTITCRASQLVSSAVAWYQQKPGKAPKLLIYWASARHTGVPSRFSGSGSGTDFTLTISSLQPEDFATYYCQQHYKTPFTFGQGTKLEIKRTVAAPSVFIFPPSDEQLKSGTASVVCLLNNFYPREAKVQWKVDNALQSGNSQESVTEQDSKDSTYSLSSTLTLSKADYEKHKVYACEVTHQGLSSPVTKSFNRGEC
Turning to B14, the “IL-13 Neutralization Assay IC50” value with Recombinant Human IL-13 [2] was determined as 0.105 nM.

B15: DVD3158 (bispecific antibody, IgG1)
VH: EVQLVQSGAEVKKPGASVKVSCKASGYTFTSYWMHWVRQAPGQGLEWIGNINPKGGSNIYNEKFQGRVTMTRDTSISTAYMELSRLRSDDTAVYYCARLDYFGDSFDLWGQGTTVTVSSGGGGSGGGGSEVQLVESGGGLVQPGGSLRLSCAASGFTFSNYGVEWVRQAPGKGLEWVSGIWADGSTHYADTVKSRFTISRDNSKNTLYLQMNSLRAEDTAVYYCAREWQHGPVAYWGQGTLVTVSS
VL: DIQMTQSPSSLSASVGDRVTITCRASQGIRNYLNWYQQKPGKAPKLLIYYASNLEVGVPSRFSGSGSGTDYTLTISSLQPEDFATYYCQQDNRFPYTFGGGTKVEIKRGGSGGGGSGDIQMTQSPSSLSASVGDRVTITCKASQLVSSAVAWYQQKPGKAPKLLIYWASTLHTGVPSRFSGSGSGTDFTLTISSLQPEDFATYYCQQHYRTPFTFGQGTKLEIKR
notes: as for B1
Consider B15, for which, in the assay with Recombinant Human IL-13 [1], the Kd stood at 0.057 nM, the koff was 6.7e-05 s⁻¹ and the kon was found to be 1.2e+06 M⁻¹ s⁻¹.
